From paper PMC9029710, “Improvement of Biocatalytic Properties and Cytotoxic Activity of L-Asparaginase from Rhodospirillum rubrum by Conjugation with Chitosan-Based Cationic Polyelectrolytes” (Pharmaceuticals, 2022)

Substrate: NC(=O)C[C@H](N)C(=O)O
Experiment: circular dichroism hydrolysis assay
Assay type: biochemical, Rhodospirillum rubrum
Details: native RrA, pH 7.5, 5 mM citrate-phosphate-borate buffer, 37 °C
From the text: circular dichroism hydrolysis assay on RrA (L-asparaginase from Rhodospirillum rubrum)

B1: RrA (L-asparaginase from Rhodospirillum rubrum) (Rhodospirillum rubrum ATCC 11170) (protein)
chain: MAVSPSPLRIFTAGGTIDKDYRLEENGLVVGDPFVAEVLKTARLAGAVSIVALSRKDSLDFTEADREAIGRAVGQAVEDHILLTHGTDTMVETARYLGGLPELAGKTVVLSGAMVPGRVGGSDAAFNIGFACAAALMLAPGVYIAMHGKVFDPAKTRKNRGLGRFEPIDDQE
notes: 172 aa, 18 kDa, tetramer; native unconjugated enzyme
Km: 4.8 ± 1.6 mM | Vmax: 59 µmol/min/mg | Vmax/Km: 12300 µL/min/mg
